Assay results: paper PMC7367873, “Dissecting the sequence determinants for dephosphorylation by the catalytic subunits of phosphatases PP1 and PP2A” (Nature Communications, 2020)

Key:
[1] = test system: GFP-14-3-3β and its binding proteins; experiment: GFP-14-3-3β co-IP with LC-MS/MS label-free quantification, untreated versus PP1c-treated; set-up: species or system human
[2] = test system: GFP-14-3-3β; experiment: GFP-14-3-3β co-IP with LC-MS/MS, untreated GFP-14-3-3β versus GFP control (14-3-3 interactome); format: binding, human
[3] = PP1 vs untreated, LFQ intensities, replicates 1-3
[4] = untreated vs GFP, LFQ intensities, replicates 1-3

Molecule | Difference (log2), PP1 vs untreated [1, 3] | Difference (log2), untreated vs GFP [2, 4] | Difference (log2), PP1 vs untreated ([1]; log2 difference, pairwise comparison PP1 vs untreated, label-free quantification, 3 replicates each) | Difference (log2), untreated vs GFP ([2]; log2 difference, pairwise comparison untreated vs GFP, label-free quantification, 3 replicates each)
EWSR1 (protein, UniProt Q01844 1-656, looked up) RNA-binding protein EWS: MASTDYSTYSQAAAQQGYSAYTAQPTQGYAQTTQAYGQQSYGTYGQPTDVSYTQAQTTATYGQTAYATSYGQPPTGYTTPTAPQAYSQPVQGYGTGAYDTTTATVTTTQASYAAQSAYGTQPAYPAYGQQPAATAPTRPQDGNKPTETSQPQSSTGGYNQPSLGYGQSNYSYPQVPGSYPMQPVTAPPSYPPTSYSSTQPTSYDQSSYSQQNTYGQPSSYGQQSSYGQQSSYGQQPPTSYPPQTGSYSQAPSQYSQQSSSYGQQSSFRQDHPSSMGVYGQESGGFSGPGENRSMSGPDNRGRGRGGFDRGGMSRGGRGGGRGGMGSAGERGGFNKPGGPMDEGPDLDLGPPVDPDEDSDNSAIYVQGLNDSVTLDDLADFFKQCGVVKMNKRTGQPMIHIYLDKETGKPKGDATVSYEDPPTAKAAVEWFDGKDFQGSKLKVSLARKKPPMNSMRGGLPPREGRGMPPPLRGGPGGPGGPGGPMGRMGGRGGDRGGFPPRGPRGSRGNPSGGGNVQHRAGDWQCPNPGCGNQNFAWRTECNQCKAPKPEGFLPPPFPPPGGDRGRGGPGGMRGGRGGLMDRGGPGGMFRGGRGGDRGGFRGGRGMDRGGFGGGRRGGPGGPPGPLMEQMGGRRGGRGGPGKMDKGEHRQERRDRPY | -1.1218 log2 | 2.021 log2 |  | 
RALGPS2 (protein, UniProt Q86X27 1-583, looked up) Ras-specific guanine …: MDLMNGQASSVNIAATASEKSSSSESLSDKGSELKKSFDAVVFDVLKVTPEEYAGQITLMDVPVFKAIQPDELSSCGWNKKEKYSSAPNAVAFTRRFNHVSFWVVREILHAQTLKIRAEVLSHYIKTAKKLYELNNLHALMAVVSGLQSAPIFRLTKTWALLSRKDKTTFEKLEYVMSKEDNYKRLRDYISSLKMTPCIPYLGIYLSDLTYIDSAYPSTGSILENEQRSNLMNNILRIISDLQQSCEYDIPMLPHVQKYLNSVQYIEELQKFVEDDNYKLSLKIEPGTSTPRSAASREDLVGPEVGASPQSGRKSVAAEGALLPQTPPSPRNLIPHGHRKCHSLGYNFIHKMNTAEFKSATFPNAGPRHLLDDSVMEPHAPSRGQAESSTLSSGISIGSSDGSELSEETSWPAFERNRLYHSLGPVTRVARNGYRSHMKASSSAESEDLAVHLYPGAVTIQGVLRRKTLLKEGKKPTVASWTKYWAALCGTQLFYYAAKSLKATERKHFKSTSNKNVSVIGWMVMMADDPEHPDLFLLTDSEKGNSYKFQAGNRMNAMLWFKHLSAACQSNKQQVPTNLMTFE | -1.125 log2 | 6.032 log2 |  | 
HNRNPA2B1 (protein, UniProt P22626 1-353, looked up) Heterogeneous nuclear …: MEKTLETVPLERKKREKEQFRKLFIGGLSFETTEESLRNYYEQWGKLTDCVVMRDPASKRSRGFGFVTFSSMAEVDAAMAARPHSIDGRVVEPKRAVAREESGKPGAHVTVKKLFVGGIKEDTEEHHLRDYFEEYGKIDTIEIITDRQSGKKRGFGFVTFDDHDPVDKIVLQKYHTINGHNAEVRKALSRQEMQEVQSSRSGRGGNFGFGDSRGGGGNFGPGPGSNFRGGSDGYGSGRGFGDGYNGYGGGPGGGNFGGSPGYGGGRGGYGGGGPGYGNQGGGYGGGYDNYGGGNYGSGNYNDFGNYNQQPSNYGPMKSGNFGGSRNMGGPYGGGNYGPGGSGGSGGYGGRSRY | -1.185 log2 | 1.703 log2 |  | 
ATP5A1 (protein, UniProt P25705 44-553, looked up) ATP synthase F(1) complex …: QKTGTAEMSSILEERILGADTSVDLEETGRVLSIGDGIARVHGLRNVQAEEMVEFSSGLKGMSLNLEPDNVGVVVFGNDKLIKEGDIVKRTGAIVDVPVGEELLGRVVDALGNAIDGKGPIGSKTRRRVGLKAPGIIPRISVREPMQTGIKAVDSLVPIGRGQRELIIGDRQTGKTSIAIDTIINQKRFNDGSDEKKKLYCIYVAIGQKRSTVAQLVKRLTDADAMKYTIVVSATASDAAPLQYLAPYSGCSMGEYFRDNGKHALIIYDDLSKQAVAYRQMSLLLRRPPGREAYPGDVFYLHSRLLERAAKMNDAFGGGSLTALPVIETQAGDVSAYIPTNVISITDGQIFLETELFYKGIRPAINVGLSVSRVGSAAQTRAMKQVAGTMKLELAQYREVAAFAQFGSDLDAATQQLLSRGVRLTELLKQGQYSPMAIEEQVAVIYAGVRGYLDKLEPSKITKFENAFLSHVVSQHQALLGTIRADGKISEQSDAKLKEIVTNFLAGFEA |  |  | 1.626 | -0.3409
HNRNPL (protein, UniProt P14866 1-589, looked up) Heterogeneous nuclear …: MSRRLLPRAEKRRRRLEQRQQPDEQRRRSGAMVKMAAAGGGGGGGRYYGGGSEGGRAPKRLKTDNAGDQHGGGGGGGGGAGAAGGGGGGENYDDPHKTPASPVVHIRGLIDGVVEADLVEALQEFGPISYVVVMPKKRQALVEFEDVLGACNAVNYAADNQIYIAGHPAFVNYSTSQKISRPGDSDDSRSVNSVLLFTILNPIYSITTDVLYTICNPCGPVQRIVIFRKNGVQAMVEFDSVQSAQRAKASLNGADIYSGCCTLKIEYAKPTRLNVFKNDQDTWDYTNPNLSGQGDPGSNPNKRQRQPPLLGDHPAEYGGPHGGYHSHYHDEGYGPPPPHYEGRRMGPPVGGHRRGPSRYGPQYGHPPPPPPPPEYGPHADSPVLMVYGLDQSKMNCDRVFNVFCLYGNVEKVKFMKSKPGAAMVEMADGYAVDRAITHLNNNFMFGQKLNVCVSKQPAIMPGQSYGLEDGSCSYKDFSESRNNRFSTPEQAAKNRIQHPSNVLHFFNAPLEVTEENFFEICDELGVKRPSSVKVFSGKSERSSSGLLEWESKSDALETLGFLNHYQMKNPNGPYPYTLKLCFSTAQHAS | -1.243 log2 | 0.7735 log2 |  | 
SERPINH1 (protein, UniProt P50454 19-418, looked up) Serpin H1: AEVKKPAAAAAPGTAEKLSPKAATLAERSAGLAFSLYQAMAKDQAVENILVSPVVVASSLGLVSLGGKATTASQAKAVLSAEQLRDEEVHAGLGELLRSLSNSTARNVTWKLGSRLYGPSSVSFADDFVRSSKQHYNCEHSKINFRDKRSALQSINEWAAQTTDGKLPEVTKDVERTDGALLVNAMFFKPHWDEKFHHKMVDNRGFMVTRSYTVGVMMMHRTGLYNYYDDEKEKLQIVEMPLAHKLSSLIILMPHHVEPLERLEKLLTKEQLKIWMGKMQKKAVAISLPKGVVEVTHDLQKHLAGLGLTEAIDKNKADLSRMSGKKDLYLASVFHATAFELDTDGNPFDQDIYGREELRSPKLFYADHPFIFLVRDTQSGSLLFIGRLVRPKGDKMRDEL | -1.158 log2 | -0.8949 log2 |  | 
SF3B1 (protein, UniProt O75533 1-1304, looked up) Splicing factor 3B subunit 1: MAKIAKTHEDIEAQIREIQGKKAALDEAQGVGLDSTGYYDQEIYGGSDSRFAGYVTSIAATELEDDDDDYSSSTSLLGQKKPGYHAPVALLNDIPQSTEQYDPFAEHRPPKIADREDEYKKHRRTMIISPERLDPFADGGKTPDPKMNARTYMDVMREQHLTKEEREIRQQLAEKAKAGELKVVNGAAASQPPSKRKRRWDQTADQTPGATPKKLSSWDQAETPGHTPSLRWDETPGRAKGSETPGATPGSKIWDPTPSHTPAGAATPGRGDTPGHATPGHGGATSSARKNRWDETPKTERDTPGHGSGWAETPRTDRGGDSIGETPTPGASKRKSRWDETPASQMGGSTPVLTPGKTPIGTPAMNMATPTPGHIMSMTPEQLQAWRWEREIDERNRPLSDEELDAMFPEGYKVLPPPAGYVPIRTPARKLTATPTPLGGMTGFHMQTEDRTMKSVNDQPSGNLPFLKPDDIQYFDKLLVDVDESTLSPEEQKERKIMKLLLKIKNGTPPMRKAALRQITDKAREFGAGPLFNQILPLLMSPTLEDQERHLLVKVIDRILYKLDDLVRPYVHKILVVIEPLLIDEDYYARVEGREIISNLAKAAGLATMISTMRPDIDNMDEYVRNTTARAFAVVASALGIPSLLPFLKAVCKSKKSWQARHTGIKIVQQIAILMGCAILPHLRSLVEIIEHGLVDEQQKVRTISALAIAALAEAATPYGIESFDSVLKPLWKGIRQHRGKGLAAFLKAIGYLIPLMDAEYANYYTREVMLILIREFQSPDEEMKKIVLKVVKQCCGTDGVEANYIKTEILPPFFKHFWQHRMALDRRNYRQLVDTTVELANKVGAAEIISRIVDDLKDEAEQYRKMVMETIEKIMGNLGAADIDHKLEEQLIDGILYAFQEQTTEDSVMLNGFGTVVNALGKRVKPYLPQICGTVLWRLNNKSAKVRQQAADLISRTAVVMKTCQEEKLMGHLGVVLYEYLGEEYPEVLGSILGALKAIVNVIGMHKMTPPIKDLLPRLTPILKNRHEKVQENCIDLVGRIADRGAEYVSAREWMRICFELLELLKAHKKAIRRATVNTFGYIAKAIGPHDVLATLLNNLKVQERQNRVCTTVAIAIVAETCSPFTVLPALMNEYRVPELNVQNGVLKSLSFLFEYIGEMGKDYIYAVTPLLEDALMDRDLVHRQTASAVVQHMSLGVYGFGCEDSLNHLLNYVWPNVFETSPHVIQAVMGALEGLRVAIGPCRMLQYCLQGLFHPARKVRDVYWKIYNSIYIGSQDALIAHYPRIYNDDKNTYIRYELDYIL | -1.121 log2 | 2.403 log2 |  | 
GTF3C3 (protein, UniProt Q9Y5Q9 2-886, looked up) General transcription factor …: SGFSPELIDYLEGKISFEEFERRREERKTREKKSLQEKGKLSAEENPDDSEVPSSSGINSTKSQDKDVNEGETSDGVRKSVHKVFASMLGENEDDEEEEEEEEEEEEEEETPEQPTAGDVFVLEMVLNRETKKMMKEKRPRSKLPRALRGLMGEANIRFARGEREEAILMCMEIIRQAPLAYEPFSTLAMIYEDQGDMEKSLQFELIAAHLNPSDTEEWVRLAEMSLEQDNIKQAIFCYTKALKYEPTNVRYLWERSSLYEQMGDHKMAMDGYRRILNLLSPSDGERFMQLARDMAKSYYEANDVTSAINIIDEAFSKHQGLVSMEDVNIAAELYISNKQYDKALEIITDFSGIVLEKKTSEEGTSEENKAPENVTCTIPDGVPIDITVKLMVCLVHLNILEPLNPLLTTLVEQNPEDMGDLYLDVAEAFLDVGEYNSALPLLSALVCSERYNLAVVWLRHAECLKALGYMERAAESYGKVVDLAPLHLDARISLSTLQQQLGQPEKALEALEPMYDPDTLAQDANAAQQELKLLLHRSTLLFSQGKMYGYVDTLLTMLAMLLKVAMNRAQVCLISSSKSGERHLYLIKVSRDKISDSNDQESANCDAKAIFAVLTSVLTKDDWWNLLLKAIYSLCDLSRFQEAELLVDSSLEYYSFYDDRQKRKELEYFGLSAAILDKNFRKAYNYIRIMVMENVNKPQLWNIFNQVTMHSQDVRHHRFCLRLMLKNPENHALCVLNGHNAFVSGSFKHALGQYVQAFRTHPDEPLYSFCIGLTFIHMASQKYVLRRHALIVQGFSFLNRYLSLRGPCQESFYNLGRGLHQLGLIHLAIHYYQKALELPPLVVEGIELDQLDLRRDIAYNLSLIYQSSGNTGMAQTLLYTYCSI | -1.189 log2 | 0.6927 log2 |  | 
